US20250262210A1 (TRUSTEES OF COLUMBIA UNIVERSITY IN THE CITY OF NEW YORK, published 2025)

Experiments:
SLC4A2 = molecular target: T1, SLC4A2 (human, UniProt P04920 1-1241, limits assumed); test: IP/MS, LZTR1 R810W-FLAG, U87
T1 sequence (looked up): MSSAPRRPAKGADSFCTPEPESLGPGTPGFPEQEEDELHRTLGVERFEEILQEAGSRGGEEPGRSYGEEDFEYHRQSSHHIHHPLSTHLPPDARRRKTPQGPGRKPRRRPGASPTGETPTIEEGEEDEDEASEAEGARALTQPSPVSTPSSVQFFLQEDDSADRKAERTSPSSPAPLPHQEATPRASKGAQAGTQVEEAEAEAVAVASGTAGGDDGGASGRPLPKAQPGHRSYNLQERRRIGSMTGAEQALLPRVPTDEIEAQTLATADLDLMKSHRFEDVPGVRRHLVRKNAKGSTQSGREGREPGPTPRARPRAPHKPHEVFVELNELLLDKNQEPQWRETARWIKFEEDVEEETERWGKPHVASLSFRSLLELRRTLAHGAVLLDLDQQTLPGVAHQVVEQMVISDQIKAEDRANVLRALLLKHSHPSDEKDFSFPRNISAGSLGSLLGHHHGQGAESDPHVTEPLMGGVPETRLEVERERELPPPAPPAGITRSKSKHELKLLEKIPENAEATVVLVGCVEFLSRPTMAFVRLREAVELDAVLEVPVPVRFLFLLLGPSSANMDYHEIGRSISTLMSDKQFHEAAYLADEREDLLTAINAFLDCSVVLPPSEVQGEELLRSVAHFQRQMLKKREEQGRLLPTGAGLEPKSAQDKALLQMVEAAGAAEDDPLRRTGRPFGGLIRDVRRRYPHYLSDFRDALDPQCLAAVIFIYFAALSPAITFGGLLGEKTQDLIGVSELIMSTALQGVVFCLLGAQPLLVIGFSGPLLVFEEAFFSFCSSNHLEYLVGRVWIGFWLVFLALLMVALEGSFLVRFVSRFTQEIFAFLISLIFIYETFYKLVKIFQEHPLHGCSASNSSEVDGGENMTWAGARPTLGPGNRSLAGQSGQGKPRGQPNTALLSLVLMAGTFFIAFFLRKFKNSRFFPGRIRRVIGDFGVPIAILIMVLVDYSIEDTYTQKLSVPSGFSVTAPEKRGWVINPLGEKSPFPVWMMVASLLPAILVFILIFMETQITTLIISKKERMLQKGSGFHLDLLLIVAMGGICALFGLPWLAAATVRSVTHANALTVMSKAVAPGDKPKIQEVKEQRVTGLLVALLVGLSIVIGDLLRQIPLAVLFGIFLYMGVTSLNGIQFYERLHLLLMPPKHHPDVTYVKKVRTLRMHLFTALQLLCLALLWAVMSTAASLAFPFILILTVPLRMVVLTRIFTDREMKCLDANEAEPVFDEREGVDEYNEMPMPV
Summary of the method: (§1)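 Read-out: spectral counts from LC-MS/MS (Orbitrap Fusion) after MaxQuant identification. Variable modifications were Met oxidation, protein N-terminal acetylation and N/Q deamidation.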

EIF2AK4 = EIF2AK4 (human, UniProt Q9P2K8 1-1649, limits assumed); test: IP/MS, LZTR1 R810W-FLAG, U87
Summary of the method: as §1

Sequence of EIF2AK4 (Q9P2K8 whole entry): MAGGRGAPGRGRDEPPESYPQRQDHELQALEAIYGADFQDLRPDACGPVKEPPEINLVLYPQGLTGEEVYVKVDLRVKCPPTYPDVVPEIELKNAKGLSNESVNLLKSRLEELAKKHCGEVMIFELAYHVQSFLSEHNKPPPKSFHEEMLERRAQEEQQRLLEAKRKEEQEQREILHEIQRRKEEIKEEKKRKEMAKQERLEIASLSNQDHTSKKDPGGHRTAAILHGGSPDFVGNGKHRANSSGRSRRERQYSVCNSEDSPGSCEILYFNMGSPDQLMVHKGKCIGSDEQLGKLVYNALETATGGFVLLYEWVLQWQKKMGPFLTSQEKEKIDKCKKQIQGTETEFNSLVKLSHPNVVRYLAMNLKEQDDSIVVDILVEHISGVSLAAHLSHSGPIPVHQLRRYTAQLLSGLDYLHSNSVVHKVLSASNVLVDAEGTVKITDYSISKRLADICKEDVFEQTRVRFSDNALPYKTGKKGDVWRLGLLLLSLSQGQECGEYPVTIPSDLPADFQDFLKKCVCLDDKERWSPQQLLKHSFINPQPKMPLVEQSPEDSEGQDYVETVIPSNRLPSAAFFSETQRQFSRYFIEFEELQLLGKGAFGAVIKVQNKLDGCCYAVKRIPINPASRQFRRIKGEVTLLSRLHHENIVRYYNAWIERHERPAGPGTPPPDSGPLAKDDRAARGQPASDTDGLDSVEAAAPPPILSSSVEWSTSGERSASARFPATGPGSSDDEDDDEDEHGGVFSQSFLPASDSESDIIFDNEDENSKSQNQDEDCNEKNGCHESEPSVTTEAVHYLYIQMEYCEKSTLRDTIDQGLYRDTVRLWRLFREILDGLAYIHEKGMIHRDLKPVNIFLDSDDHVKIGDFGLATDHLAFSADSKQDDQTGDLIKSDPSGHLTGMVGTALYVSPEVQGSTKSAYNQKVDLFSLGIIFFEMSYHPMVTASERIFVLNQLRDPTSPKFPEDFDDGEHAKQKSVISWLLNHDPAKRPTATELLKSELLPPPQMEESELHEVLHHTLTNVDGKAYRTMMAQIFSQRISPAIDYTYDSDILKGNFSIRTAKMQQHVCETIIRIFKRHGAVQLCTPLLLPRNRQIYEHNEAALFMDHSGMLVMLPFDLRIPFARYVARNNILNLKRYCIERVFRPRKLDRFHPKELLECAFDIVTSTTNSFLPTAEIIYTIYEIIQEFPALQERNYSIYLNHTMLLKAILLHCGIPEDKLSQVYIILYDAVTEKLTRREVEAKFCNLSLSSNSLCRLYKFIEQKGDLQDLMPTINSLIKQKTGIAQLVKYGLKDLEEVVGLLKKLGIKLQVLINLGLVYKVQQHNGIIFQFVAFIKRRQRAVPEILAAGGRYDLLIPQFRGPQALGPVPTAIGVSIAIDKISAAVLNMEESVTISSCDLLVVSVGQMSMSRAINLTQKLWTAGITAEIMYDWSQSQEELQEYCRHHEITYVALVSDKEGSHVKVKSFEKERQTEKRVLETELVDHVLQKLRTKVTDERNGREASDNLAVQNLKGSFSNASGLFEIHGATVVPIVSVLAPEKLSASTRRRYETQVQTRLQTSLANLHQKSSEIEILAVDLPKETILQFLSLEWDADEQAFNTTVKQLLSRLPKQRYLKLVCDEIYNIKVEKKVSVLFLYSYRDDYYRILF

B1: LZTR1 R810W-FLAG (other, human, UniProt Q8N653 1-840, looked up)
chain: MAGPGSTGGQIGAAALAGGARSKVAPSVDFDHSCSDSVEYLTLNFGPFETVHRWRRLPPCDEFVGARRSKHTVVAYKDAIYVFGGDNGKTMLNDLLRFDVKDCSWCRAFTTGTPPAPRYHHSAVVYGSSMFVFGGYTGDIYSNSNLKNKNDLFEYKFATGQWTEWKIEGRLPVARSAHGATVYSDKLWIFAGYDGNARLNDMWTIGLQDRELTCWEEVAQSGEIPPSCCNFPVAVCRDKMFVFSGQSGAKITNNLFQFEFKDKTWTRIPTEHLLRGSPPPPQRRYGHTMVAFDRHLYVFGGAADNTLPNELHCYDVDFQTWEVVQPSSDSEVGGAEVPERACASEEVPTLTYEERVGFKKSRDVFGLDFGTTSAKQPTQPASELPSGRLFHAAAVISDAMYIFGGTVDNNIRSGEMYRFQFSCYPKCTLHEDYGRLWESRQFCDVEFVLGEKEECVQGHVAIVTARSRWLRRKITQARERLAQKLEQEAAPVPREAPGVAAGGARPPLLHVAIREAEARPFEVLMQFLYTDKIKYPRKGHVEDVLLIMDVYKLALSFQLCRLEQLCRQYIEASVDLQNVLVVCESAARLQLSQLKEHCLNFVVKESHFNQVIMMKEFERLSSPLIVEIVRRKQQPPPRTPLDQPVDIGTSLIQDMKAYLEGAGAEFCDITLLLDGHPRPAHKAILAARSSYFEAMFRSFMPEDGQVNISIGEMVPSRQAFESMLRYIYYGEVNMPPEDSLYLFAAPYYYGFYNNRLQAYCKQNLEMNVTVQNVLQILEAADKTQALDMKRHCLHIIVHQFTKVSKLPTLWSLSQQLLLDIIDSLASHISDKQCAELGADI
notes: Stably expressed in U87 cells by lentivirus; also called LZTR1-FLAG-R810W; LZTR1 RW; not shown: FLAG tag
- binding result (SLC4A2): binds
- binding result (EIF2AK4): binds
